Experiments:
[1] = biological target: human PD-L1 (human) (UniProt Q9NZQ7); assay: cell-based or functional assay
[2] = biological target: human PD-1 (human) (UniProt Q15116); assay: cell-based or functional assay
Chain of UniProt Q15116 (Q15116 other isoform, or with tags, fused parts or gaps limits assumed): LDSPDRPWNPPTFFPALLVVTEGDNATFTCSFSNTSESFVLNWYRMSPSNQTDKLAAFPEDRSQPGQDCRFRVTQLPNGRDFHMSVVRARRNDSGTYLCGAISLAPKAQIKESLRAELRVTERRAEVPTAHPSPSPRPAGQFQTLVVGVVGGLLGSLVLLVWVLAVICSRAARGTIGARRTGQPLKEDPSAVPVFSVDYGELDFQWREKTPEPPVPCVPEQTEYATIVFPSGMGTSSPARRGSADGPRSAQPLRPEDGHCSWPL

Chain of UniProt Q9NZQ7 (Q9NZQ7 19-290 limits assumed): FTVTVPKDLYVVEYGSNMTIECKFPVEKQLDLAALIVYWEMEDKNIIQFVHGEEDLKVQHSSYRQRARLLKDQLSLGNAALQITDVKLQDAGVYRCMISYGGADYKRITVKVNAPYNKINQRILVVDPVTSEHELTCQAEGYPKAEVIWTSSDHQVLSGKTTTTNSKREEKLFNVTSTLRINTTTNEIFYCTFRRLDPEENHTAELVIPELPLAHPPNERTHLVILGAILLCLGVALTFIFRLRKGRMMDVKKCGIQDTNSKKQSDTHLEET

expansion of HCV-specific T cells (frequency of CFSE low tetramer labeled CD8+ T cells after 6 days) [1] [fold]	fold increase in tetramer+ cells (6-day CFSE proliferation of B*4201 TL9-specific CD8+ T cells) [1] [fold]	fold increase in the frequency of EBV or CMV-specific CD8 T cells (6-day CFSE proliferation) [1] [fold]	percentage of B*4201 TL9-specific CD8+ T cells after 6-day stimulation with peptide [1] [%]	expansion of HCV-specific T cells (frequency of CFSE low tetramer labeled CD8+ T cells after 6 days) [2] [fold]	Substance
4	10.3	< 3.5	12.4	–	Monoclonal antibody to human PD-L1 (29E.2A3, mouse IgG2b)
–	–	–	–	4	Monoclonal antibody to human PD-1 (EH12, mouse IgG1)
